B1: DP5 (peptide)
peptide: EEEEDNNDDDEEE
notes: designed with the Miyazawa-Jernigan potential, one by three residue design, 13 residues; also called designed peptide DP5; source: synthetic peptide, without caps, at least 95% purity (Toray Research Center Inc.)
B2: DP6 (peptide)
peptide: EEEEEDNNDDDEEEWF
notes: designed with the Miyazawa-Jernigan potential, one by three residue design, 16 residues; designed target is residues 369-384 of p53; also called designed peptide DP6; source: synthetic peptide, without caps, at least 95% purity (Toray Research Center Inc.)
B3: DP4 (peptide)
peptide: DHIEDEEGNDSDEHEE
notes: designed with the Miyazawa-Jernigan potential, one by one residue design, 16 residues; also called designed peptide DP4; source: synthetic peptide, without caps, at least 95% purity (Toray Research Center Inc.)
B4: DP3 (peptide)
peptide: DEHEEIFMESKGWRDR
notes: designed with the Miyazawa-Jernigan potential, one by one residue design, 16 residues; also called designed peptide DP3; source: synthetic peptide, without caps, at least 95% purity (Toray Research Center Inc.)
B5: DP2 (peptide)
peptide: EDEEGNDSDEHEE
notes: designed with the Miyazawa-Jernigan potential, one by one residue design, 13 residues; also called designed peptide DP2; source: synthetic peptide, without caps, at least 95% purity (Toray Research Center Inc.)
B6: DP1 (peptide)
peptide: EHEEIFMESKGWR
notes: designed with the Miyazawa-Jernigan potential, one by one residue design, 13 residues; also called designed peptide DP1; source: synthetic peptide, without caps, at least 95% purity (Toray Research Center Inc.)

In this test the target is T1, CT peptide (residues 367–393 of human p53) labeled with FAM at the N-terminus (human, UniProt P04637 367-393, FAM at the N-terminus).
T1 construct: p53, human, residues 367-393 (C-terminal domain); also called CT peptide of p53; monomeric CT domain of p53; source: synthetic peptide, without caps, at least 95% purity (Toray Research Center Inc.)
T1 sequence (P04637 367-393): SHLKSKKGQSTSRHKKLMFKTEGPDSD
As to the kind of experiment: fluorescence polarisation; fluorescence anisotropy; nonlabeled peptide titrated into 5 nM FAM-labeled CT peptide; 25 °C; 20 mM HEPES, 0.5 mM EDTA, 1 mM DTT, 0.2 mg/mL BSA, pH 7.9; in the absence of salt; apparent dissociation constant, one by one binding fit. Particulars: both partners purified. On the technique in general: In fluorescence polarisation assays a small probe gives low polarisation when free and higher when bound to something large.
B1: the Kd came out at 3.2 µM.

For B2, the Kd stood at 1.2 µM.

For B3, the Kd is 9 µM.

As for B4, the Kd turned out to be 550 µM.

With B5, the Kd was found to be 23 µM.

In the case of B6, the Kd amounted to 60 µM.

For the origin of these results see PMC6599006 (Scientific Reports, 2019).
